From IntAct's records for PubMed 29892012

B1: Peripheral plasma membrane protein CASK (Homo sapiens), O14936 (parent)
chain: MADDDVLFEDVYELCEVIGKGPFSVVRRCINRETGQQFAVKIVDVAKFTSSPGLSTEDLKREASICHMLKHPHIVELLETYSSDGMLYMVFEFMDGADLCFEIVKRADAGFVYSEAVASHYMRQILEALRYCHDNNIIHRDVKPHCVLLASKENSAPVKLGGFGVAIQLGESGLVAGGRVGTPHFMAPEVVKREPYGKPVDVWGCGVILFILLSGCLPFYGTKERLFEGIIKGKYKMNPRQWSHISESAKDLVRRMLMLDPAERITVYEALNHPWLKERDRYAYKIHLPETVEQLRKFNARRKLKGAVLAAVSSHKFNSFYGDPPEELPDFSEDPTSSGLLAAERAVSQVLDSLEEIHALTDCSEKDLDFLHSVFQDQHLHTLLDLYDKINTKSSPQIRNPPSDAVQRAKEVLEEISCYPENNDAKELKRILTQPHFMALLQTHDVVAHEVYSDEALRVTPPPTSPYLNGDSPESANGDMDMENVTRVRLVQFQKNTDEPMGITLKMNELNHCIVARIMHGGMIHRQGTLHVGDEIREINGISVANQTVEQLQKMLREMRGSITFKIVPSYRTQSSSCERDSPSTSRQSPANGHSSTNNSVSDLPSTTQPKGRQIYVRAQFEYDPAKDDLIPCKEAGIRFRVGDIIQIISKDDHNWWQGKLENSKNGTAGLIPSPELQEWRVACIAMEKTKQEQQASCTWFGKKKKQYKDKYLAKHNAVFDQLDLVTYEEVVKLPAFKRKTLVLLGAHGVGRRHIKNTLITKHPDRFAYPIPHTTRPPKKDEENGKNYYFVSHDQMMQDISNNEYLEYGSHEDAMYGTKLETIRKIHEQGLIAILDVEPQALKVLRTAEFAPFVVFIAAPTITPGLNEDESLQRLQKESDILQRTYAHYFDLTIINNEIDETIRHLEEAVELVCTAPQWVPVSWVY
partner: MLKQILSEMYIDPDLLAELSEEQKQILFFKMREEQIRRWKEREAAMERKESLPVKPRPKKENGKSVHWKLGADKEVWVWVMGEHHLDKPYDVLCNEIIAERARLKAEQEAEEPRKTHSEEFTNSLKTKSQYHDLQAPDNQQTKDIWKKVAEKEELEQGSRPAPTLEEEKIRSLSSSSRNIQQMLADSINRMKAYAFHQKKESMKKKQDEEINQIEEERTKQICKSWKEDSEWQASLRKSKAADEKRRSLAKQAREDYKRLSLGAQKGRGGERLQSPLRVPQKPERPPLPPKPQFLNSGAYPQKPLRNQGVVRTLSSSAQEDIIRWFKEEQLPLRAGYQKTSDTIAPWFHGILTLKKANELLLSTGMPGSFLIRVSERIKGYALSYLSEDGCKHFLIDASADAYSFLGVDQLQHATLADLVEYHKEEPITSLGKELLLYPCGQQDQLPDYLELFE
B2: E3 ubiquitin-protein ligase TRIM17 (Homo sapiens), Q9Y577 (parent)
chain: MEAVELARKLQEEATCSICLDYFTDPVMTTCGHNFCRACIQLSWEKARGKKGRRKRKGSFPCPECREMSPQRNLLPNRLLTKVAEMAQQHPGLQKQDLCQEHHEPLKLFCQKDQSPICVVCRESREHRLHRVLPAEEAVQGYKLKLEEDMEYLREQITRTGNLQAREEQSLAEWQGKVKERRERIVLEFEKMNLYLVEEEQRLLQALETEEEETASRLRESVACLDRQGHSLELLLLQLEERSTQGPLQMLQDMKEPLSRKNNVSVQCPEVAPPTRPRTVCRVPGQIEVLRGFLEDVVPDATSAYPYLLLYESRQRRYLGSSPEGSGFCSKDRFVAYPCAVGQTAFSSGRHYWEVGMNITGDALWALGVCRDNVSRKDRVPKCPENGFWVVQLSKGTKYLSTFSALTPVMLMEPPSHMGIFLDFEAGEVSFYSVSDGSHLHTYSQATFPGPLQPFFCLGAPKSGQMVISTVTMWVKG
partner: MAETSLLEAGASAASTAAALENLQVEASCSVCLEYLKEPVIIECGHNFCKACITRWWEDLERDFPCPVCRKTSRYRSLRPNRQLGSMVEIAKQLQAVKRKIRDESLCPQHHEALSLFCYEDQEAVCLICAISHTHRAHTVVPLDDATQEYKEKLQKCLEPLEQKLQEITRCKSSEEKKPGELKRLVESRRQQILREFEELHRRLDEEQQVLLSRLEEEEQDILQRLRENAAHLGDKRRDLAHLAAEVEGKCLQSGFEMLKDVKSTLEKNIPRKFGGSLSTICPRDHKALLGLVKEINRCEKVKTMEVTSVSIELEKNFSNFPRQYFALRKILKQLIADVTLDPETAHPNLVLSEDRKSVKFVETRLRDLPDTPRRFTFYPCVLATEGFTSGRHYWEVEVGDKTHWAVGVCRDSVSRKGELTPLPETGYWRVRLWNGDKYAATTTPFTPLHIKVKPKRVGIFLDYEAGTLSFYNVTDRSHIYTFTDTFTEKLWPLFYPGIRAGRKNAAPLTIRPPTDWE
B3: Abl interactor 2 (Homo sapiens), Q9NYB9 (parent)
chain: MAELQMLLEEEIPGGRRALFDSYTNLERVADYCENNYIQSADKQRALEETKAYTTQSLASVAYLINTLANNVLQMLDIQASQLRRMESSINHISQTVDIHKEKVARREIGILTTNKNTSRTHKIIAPANLERPVRYIRKPIDYTILDDIGHGVKWLLRFKVSTQNMKMGGLPRTTPPTQKPPSPPMSGKGTLGRHSPYRTLEPVRPPVVPNDYVPSPTRNMAPSQQSPVRTASVNQRNRTYSSSGSSGGSHPSSRSSSRENSGSGSVGVPIAVPTPSPPSVFPAPAGSAGTPPLPATSASAPAPLVPATVPSSTAPNAAAGGAPNLADGFTSPTPPVVSSTPPTGHPVQFYSMNRPASRHTPPTIGGSLPYRRPPSITSQTSLQNQMNGGPFYSQNPVSDTPPPPPPVEEPVFDESPPPPPPPEDYEEEEAAVVEYSDPYAEEDPPWAPRSYLEKVVAIYDYTKDKEDELSFQEGAIIYVIKKNDDGWYEGVMNGVTGLFPGNYVESIMHYSE
partner: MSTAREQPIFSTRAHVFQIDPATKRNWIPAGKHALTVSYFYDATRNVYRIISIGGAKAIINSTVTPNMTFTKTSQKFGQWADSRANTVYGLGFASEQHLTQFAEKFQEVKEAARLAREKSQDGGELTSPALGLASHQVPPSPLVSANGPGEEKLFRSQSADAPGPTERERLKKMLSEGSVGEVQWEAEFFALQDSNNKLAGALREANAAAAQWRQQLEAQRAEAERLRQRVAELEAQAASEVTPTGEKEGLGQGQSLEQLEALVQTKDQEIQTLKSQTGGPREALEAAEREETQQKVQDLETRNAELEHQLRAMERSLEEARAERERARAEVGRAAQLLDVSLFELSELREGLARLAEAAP
B4: RNA-binding protein 3 (Homo sapiens), P98179 (parent)
chain: MSSEEGKLFVGGLNFNTDEQALEDHFSSFGPISEVVVVKDRETQRSRGFGFITFTNPEHASVAMRAMNGESLDGRQIRVDHAGKSARGTRGGGFGAHGRGRSYSRGGGDQGYGSGRYYDSRPGGYGYGYGRSRDYNGRNQGGYDRYSGGNYRDNYDN

Variants of: B1
Settings: with sh24a_human SH2D4A

Row | Variant | effect of a mutation on the interaction
1 | G197R | with no effect

Variants of: B2
Settings: with tri39_human TRIM39, Q9HCM9

Row | Variant | effect of a mutation on the interaction
2 | R159T | with no effect

Variants of: B3
Settings: with home3_human HOMER3, Q9NSC5

Row | Variant | effect of a mutation on the interaction
3 | R373C | with no effect

Variants of: B3
Settings: with home3_human HOMER3, Q9NSC5
Remark: another data set of the same source

Row | Variant | effect of a mutation on the interaction
4 | E202K | with no effect

Variants of: B4
Settings: with snrpa_human SNRPA

Row | Variant | effect of a mutation on the interaction
5 | R145H | with no effect

Variants of: B4
Settings: with rbmx_human RBMX

Row | Variant | effect of a mutation on the interaction
6 | R145H | with no effect
